Test results: the supplement of paper PMC9112550, “Optimization of the antimicrobial peptide Bac7 by deep mutational scanning” (BMC Biology, 2022)

Test system: Escherichia coli TOP10
Test: shrunken log2 fold change of peptide-encoding DNA abundance (4.5 h post-induction vs induction); higher = less antimicrobial activity (less host growth inhibition)
Conditions: time post-induction: 4.5 h; library: site-saturation at positions 5, 18, 19, 20
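Further: peptides expressed intracellularly from a pBAD plasmid library in pooled LB shake-flask culture, induced with 0.3% L-arabinose, DNA abundance read by NGS, three biological replicates, DESeq2 with apeglm shrinkage.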

| Sequence | shrunken log2 fold change |
| --- | --- |
| RRIRWRPPRLPRPRPRPPWAPRP | 0.452 |
| RRIRQRPPRLPRPRPRPKTCPRP | -0.0119 |
| RRIRQRPPRLPRPRPRPICWPRP | 0.0153 |
| RRIRNRPPRLPRPRPRPRPVPRP | 0.303 |
| RRIRHRPPRLPRPRPRPLVDPRP | -0.219 |
| RRIRLRPPRLPRPRPRPDMGPRP | 0.0446 |
| RRIRYRPPRLPRPRPRPWIYPRP | -0.138 |
| RRIRERPPRLPRPRPRPWVMPRP | -0.32 |
| RRIRYRPPRLPRPRPRPTFEPRP | -0.274 |
| RRIRFRPPRLPRPRPRPLCKPRP | 0.0214 |
| RRIRMRPPRLPRPRPRPASEPRP | 0.145 |
| RRIRNRPPRLPRPRPRPTANPRP | 0.0124 |
| RRIRWRPPRLPRPRPRPKCSPRP | 0.0308 |
| RRIRDRPPRLPRPRPRPPPMPRP | 0.519 |
| RRIRERPPRLPRPRPRPKIDPRP | -0.0798 |
| RRIRWRPPRLPRPRPRPHCVPRP | -0.169 |
| RRIRCRPPRLPRPRPRPVPRPRP | 0.534 |
| RRIRERPPRLPRPRPRPNCWPRP | 0.659 |
| RRIRRRPPRLPRPRPRPRWKPRP | -0.0516 |
| RRIRLRPPRLPRPRPRPQENPRP | -0.261 |
| RRIRRRPPRLPRPRPRPETKPRP | 0.511 |
| RRIRIRPPRLPRPRPRPIAMPRP | -0.216 |
| RRIRMRPPRLPRPRPRPGPDPRP | 0.768 |
| RRIRMRPPRLPRPRPRPVNSPRP | 0.00706 |
| RRIRMRPPRLPRPRPRPINLPRP | -0.0139 |

| Sequence | shrunken log2 fold change |
| --- | --- |
| RRIRYRPPRLPRPRPRPSLWPRP | -0.0532 |
| RRIRFRPPRLPRPRPRPRNWPRP | 0.19 |
| RRIRKRPPRLPRPRPRPLVDPRP | 0.218 |
| RRIRMRPPRLPRPRPRPGTGPRP | 0.596 |
| RRIRVRPPRLPRPRPRPLDKPRP | 0.0163 |
| RRIRVRPPRLPRPRPRPVCNPRP | -0.0396 |
| RRIRMRPPRLPRPRPRPYPLPRP | -0.141 |
| RRIRVRPPRLPRPRPRPIMNPRP | -0.752 |
| RRIRKRPPRLPRPRPRPWWSPRP | -0.00415 |
| RRIRHRPPRLPRPRPRPRFGPRP | 0.0573 |
| RRIRKRPPRLPRPRPRPYKTPRP | -0.227 |
| RRIRYRPPRLPRPRPRPCKRPRP | -0.0961 |
| RRIRGRPPRLPRPRPRPPPRPRP | 1.69 |
| RRIRCRPPRLPRPRPRPRELPRP | 0.506 |
| RRIRARPPRLPRPRPRPLHTPRP | 0.0174 |
| RRIRQRPPRLPRPRPRPCVSPRP | -0.107 |
| RRIRLRPPRLPRPRPRPSGHPRP | -0.208 |
| RRIRWRPPRLPRPRPRPPPPPRP | 0.958 |
| RRIRPRPPRLPRPRPRPFIGPRP | 0.108 |
| RRIRERPPRLPRPRPRPRISPRP | -1.36 |
| RRIRKRPPRLPRPRPRPNFPPRP | 0.117 |
| RRIRFRPPRLPRPRPRPGYKPRP | -0.438 |
| RRIRKRPPRLPRPRPRPCDDPRP | -0.0472 |
| RRIRIRPPRLPRPRPRPDASPRP | -0.00609 |
| RRIRMRPPRLPRPRPRPYKPPRP | 0.0559 |

| Sequence | shrunken log2 fold change |
| --- | --- |
| RRIRLRPPRLPRPRPRPAMIPRP | -0.223 |
| RRIRPRPPRLPRPRPRPFGAPRP | -0.00494 |
| RRIRMRPPRLPRPRPRPIWWPRP | 0.124 |
| RRIRQRPPRLPRPRPRPMVWPRP | -0.0183 |
| RRIRNRPPRLPRPRPRPNQEPRP | -0.0316 |
| RRIRIRPPRLPRPRPRPPPDPRP | 0.654 |
| RRIRPRPPRLPRPRPRPAPPPRP | 0.726 |
| RRIRVRPPRLPRPRPRPHFHPRP | 3.23 |
| RRIRERPPRLPRPRPRPDHAPRP | -0.318 |
| RRIRWRPPRLPRPRPRPSFCPRP | -0.136 |
| RRIRSRPPRLPRPRPRPRIVPRP | -0.174 |
| RRIRARPPRLPRPRPRPALAPRP | 0.554 |
| RRIRMRPPRLPRPRPRPTHKPRP | 0.275 |
| RRIRFRPPRLPRPRPRPLYRPRP | -0.702 |
| RRIRARPPRLPRPRPRPTIPPRP | 0.132 |
| RRIRCRPPRLPRPRPRPIDMPRP | -0.175 |
| RRIRERPPRLPRPRPRPGLIPRP | 0.101 |
| RRIRDRPPRLPRPRPRPRIWPRP | 0.53 |
| RRIRRRPPRLPRPRPRPDEIPRP | 0.116 |
| RRIRIRPPRLPRPRPRPSQHPRP | -0.71 |
| RRIRWRPPRLPRPRPRPQAGPRP | 0.335 |
| RRIRARPPRLPRPRPRPQNMPRP | -0.497 |
| RRIRKRPPRLPRPRPRPMLGPRP | 0.00289 |
| RRIRHRPPRLPRPRPRPLIEPRP | -0.106 |
| RRIRFRPPRLPRPRPRPHYLPRP | -0.217 |
